Reference: paper PMC12271210

Columns and labels:
KPNB1 = assay: BLI; APS probe with immobilised KPNB1 (10 μg/ml, to saturation), N protein in solution (gradient 0.61–2.07 μM or 4.17–8.89 μM); 30°C, PBS + 0.2% BSA; 1:1 binding model; ForteBio Octet
[1] = molecular target: classic PRRSV N protein (porcine reproductive and respiratory syndrome virus (classic PRRSV)); assay: BLI; SA probe with immobilised N protein (10 μg/ml, immobilization height 2.2 nm), KPNA1 in solution (gradient 1.47–4.97 μM or 0.87–9.95 μM); 30°C, PBS + 0.2% BSA; 1:1 binding model; ForteBio Octet
[2] = molecular target: HP-PRRSV N protein (porcine reproductive and respiratory syndrome virus (HP-PRRSV)); assay: as above

| Substance | Kd (KPNB1) [µM] | koff (KPNB1) [s⁻¹] | kon (KPNB1) [M⁻¹ s⁻¹] | Kd [1] [µM] | koff [1] [s⁻¹] | kon [1] [M⁻¹ s⁻¹] | Kd [2] [µM] | koff [2] [s⁻¹] | kon [2] [M⁻¹ s⁻¹] |
| --- | --- | --- | --- | --- | --- | --- | --- | --- | --- |
| HP-PRRSV N protein (natural protein) | 2.13 | 0.00737 | 3450 | – | – | – | – | – | – |
| KPNA1 (receptor) | – | – | – | 0.304 | 0.000619 | 2030 | 0.91 | 0.000446 | 490 |
| classic PRRSV N protein (natural protein) | 0.293 | 0.00179 | 6110 | – | – | – | – | – | – |
